In the DeepSol protein solubility set:

Assay: soluble on expression in E. coli; label from the status in PepcDB or PDB records

Sequence | soluble on expression in E. coli
MPGSTGKTRTAEAGETARRDQDSNSYVYGVVPADVELDPEARGVGDPPGRISLVRHGEIAALVSDIVLDRPLGRPDDLLAHQRLLDATAAEVPVLPFRFGAVVSDSEAVVEELLGPNHDDFLAALKELEGRAEYVVKGRYVERVVIGEVLAEDPEATRLREEIRGRPEEATWDARIQLGQMIGEAVAAKRDADTAALVDALAPKCAGVVVREPTHEQDAVHVAVLVDTDRQAEFEKILDEFGERWAGRIDLRLLGPLAPYDFVMAPGQGG | soluble
MRVELDFRSVKMQVSQYLYQNVQSIWGDCISHPFVQGIGRGTLERDKFRFYIIQDYLFLLEYAKVFALGVVKACDEAVMREFSNAIQDILNNEMSIHNHYIRGLQITQKELQNARPTLANKSYTSYMLAEGFKGSIKEVAAAVLSCGWSYLVIAQNLSQIPNALEHAFYGHWIKGYSSKEFQACVNWNINLLDSLTLTSSKQEIEKLKDIFITTSEYEYLFWDMAYQSLEHHHHHH | not soluble
MGSDKIHHHHHHMEFEVKKTFGKARLGVMKLHHGAVETPVFMPVGTNASVKLLTPRDLEEAGAEIILSNTFHLMLKPGVEIIKLHRGLHNFMGWKRPILTDSGGFQVFSLPKIRIDDEGVVFRSPIDGSKVFLNPEISMEVQIALGSDICMVFDHCPVPDADYEEVKEATERTYRWALRSKKAFKTENQALFGIVQGGIYPDLRRESALQLTSIGFDGYAIGGLSIGEERSLTLEMTEVTVEFLPEDKPRYFMGGGSPELILELVDRGVDMFDSVFPTRIARHGTALTWNGKLNLKASYNKRSLEPVDERCGCYTCKNFTRSYIHHLFDRGEVLGQILLTIHNINFMISLMKEVRRSIESGTFKELKSKVVEVYSSGGVNV | soluble
MAAIAFIGLGQMGSPMASNLLQQGHQLRVFDVNAEAVRHLVDKGATPAANPAQAAKDAEFIITMLPNGDLVRNVLFGENGVCEGLSTDALVIDMSTIHPLQTDKLIADMQAKGFSMMDVPVGRTSANAITGTLLLLAGGTAEQVERATPILMAMGSELINAGGPGMGIRVKLINNYMSIALNALSAEAAVLCEALNLPFDVAVKVMSGTAAGKGHFTTSWPNKVLSGDLSPAFMIDLAHKDLGIALDVANQLHVPMPLGAASREVYSQARAAGRGRQDWSAILEQVRVSAGMTAKVKM | soluble
MGSDKIHHHHHHMSIQTPIRGLRSFCVASKCLSFKHAAAQLFLTPSAVSHQIKQLEEQLGFMLFKRNTRSIELTSSGKQFYQSIQPIIHQLESTISEFTHNQQNHTIVISLPEFFASELFIPRLSEWSEKNPSINLQLETVKAGSEPSQIADLSIVLANGKPNASIVQELFPIRYAAACNKKLYKKLKNSGFKALKNTPLILHRSRPWSWHQWAENLGVNDFDPKQIIQFDSMFGVARAAQQGMGIALVPLPMSKTWFSEQLLVKLFDEELNTNDRYYLIQHENMESKVELTLFANWVKETFMTDYL | not soluble
MYKLSGKAVEDFRGIYDYTLGKFGDEQADRYTDSLGTFLDTLSQMPEIGQDYDAIPEVKKIAFRFHTVYYVIRVDDILIARILHQLMEPRRHW | soluble
MATIHVDGKEYEVNGADNLLEACLSLGLDIPYFCWHPALGSVGACRQCAVKQYQNAEDTRGRLVMSCMTPASDGTFISIDDEEAKQFRESVVEWLMTNHPHDCPVCEEGGNCHLQDMTVMTGHSFRRYRFTKRTHRNQDLGPFISHEMNRCIACYRCVRYYKDYADGTDLGVYGAHDNVYFGRPEDGTLESEFSGNLVEICPTGVFTDKTHSERYNRKWDMQFAPSICQQCSIGCNISPGERYGELRRIENRYNGTVNHYFLCDRGRFGYGYVNLKDRPRQPVQRRGDDFITLNAEQAMQGAADILRQSKKVIGIGSPRASVESNFALRELVGEENFYTGIAHGEQERLQLALKVLREGGIYTPALREIESYDAVLVLGEDVTQTGARVALAVRQAVKGKAREMAAAQKVADWQIAAILNIGQRAKHPLFVTNVDDTRLDDIAAWTYRAPVEDQARLGFAIAHALDNSAPAVDGIEPELQNKIDVIVQALAGAKKPLIISGTNAGSIEVIQAAANVAKALKGRGADVGITMIARSVNSMGLGIMGGGSLEEALTELETGRADAVVVLENDLHRYASATRVNAALAKAPLVMVVDHQRTAIMENAHLVLSSASFAESDGTVINNEGRAQRFFQVYDPAYYDSKTVMLESWRWLHSLHSTLLSREVDWTQLDHVIDAVVAKIPELAGIKDAAPDATFRIRGQKLAREPHRYSGRTAMRANISVHEPRQPQDIDTMFTFSMEGNNQPTAHRSQVPFAWAPGWNSPQAWNKFQDEVGGKLRFGDPGVRLFETSENGLDYFTSVPARFQPQDGKWRIAPYYHLFGSDELSQRAPVFQSRMPQPYIKLNPADAAKLGVNAGTRVSFSYDGNTVTLPVEIAEGLTAGQVGLPMGMSGIAPVLAGAHLEDLKEAQQ | not soluble
KTVTPEEKKLVAEKHVDELVQKALVALEEMRKLDQEQVDYIVAKASVAALDAHGELALHAFEETGRGVFEDKATKNLFACEHVVNNMRHTKTVGVIEEDDVTGLTLIAEPVGVVCGITPTTNPTSTAIFKSLISLKTRNPIVFAFHPSAQESSAHAARIVRDAAIAAGAPENCVQWITQPSMEATSALMNHEGVATILATGGNAMVKAAYSCGKPALGVGAGNVPAYVEKSANIRQAAHDIVMSKSFDNGMVCASE | not soluble
MGHHHHHHSHMGDSRRDVLHEPAIALLSSPQTQSRLQIDAFIARRCWGSQWDITGYIHQQDFPTAVFIGFSNEFNICIPHPFTEWLQCVRKYSQSWGVRKGQRHIRYGMCSERTHHLSRTYSSLLEREEKLAFYGVLTMCQIWSET | not soluble
MYVTIVYASVKTDKTEAFKEATRMNHEQSIREPGNMRFDILQSADDPTRFVLYEAYKTRKDAAAHKETAHYLTWRDTVADWMAEPRKGVIYGGLYPTGDD | soluble
MKRHFRPSLIKTEAWEGYEFADKEIKITESTDCYGAVLWPSAMVLCHFLDSHRDQYNLLDKKIIELGAGTGLVTIVTSLLGAQVTSTDLPDVLANLRHNVNRNTRGRCRHEPQVTELIWGQQLEERFPRYTCQYDYILAADVVYGHPYLQELLETFIHLCSDHTVILWAMRFRLDPENRFVHTFQEHFHLEELYDLPSLSIKLYRAHKR | not soluble
VEPVDPCFRANCEYQCQPLNQTSYLCVCAEGFAPIPHEPHRCQLFCNQTACPADCDPNTQASCECPEGYILDDGFICTDIDECENGGFCSGVCHNLPGTFECICGPDSALAGQIGTDCDSG | soluble
MGSDKIHHHHHHPVAIIGGGPVGLAAAAHLAVRDVPFVLFEGKSEVGASILEWKHVSLFSPWKYNIDRAAKSLLEKESWKEPAGDRLPTGEQLVRDYLQPLAETKALKPYIYTNAPVQSIYRKGIDKIKDHNRENTPFIIRYKQDNDQKTLRARAVIDATGTWFSPNPIGAGGVPAIGEEEAKDSIYYGIPDVKGKDRSRYEGKTILVVGSGHSAIHTLLDLAQLKEAAPSTRILWAIRRNSPNGLFGGGQEDALPARGQLGLALEALLSKQKVELISSFEMEQIDRVEGRLSVVGVQNESPISLPLVDEIVANTGARPTVDYHRDIRYQLDSKLESVPALAPLIDPNIHSCGTVRPHGEKELRQPEKNFYIAGVKSYGRAPTFLLATGYEQVRSIVASLAGSKKEAERVELQLPKTGVCKSDFLAKRSCC | not soluble
MSLSPFEHPFLSGLFGDSEIIELFSAKADIDAMIRFETALAQAEAEASIFADDEAEAIVSGLSEFAADMSALRHGVAKDGVVVPELIRQMRAAVAGQAADKVHFGATSQDVIDTSLMLRLKMAAEIIATRLGHLIDTLGDLASRDGHKPLTGYTRMQAAIGITVADRAAGWIAPLERHLLRLETFAQNGFALQFGGAAGTLEKLGDNAGAVRADLAKRLGLADRPQWHNQRDGIAEFANLLSLVTGTLGKFGQDIALMAEIGSEIRLSGGGGSSAMPHKQNPVNAETLVTLARFNAVQISALHQSLVQEQERSGAGWMLEWLTLPQMVTATGTSLLVAERLAAQIDRLGADESHHHHHH | soluble
MEILQFIGYGNMAQAILEGAHEILSKRFILEITGRNPEKIAPFLQEKNIQAQIVPYKDAIDIHQKFVFLLFKPYNLKDFNYQGQAKSVLSALAGVGFKALSDAIDSLHYLKCMPNIASKFALSSTAVCEKSPMPLISQKALSVIESFGNCVRVGHEELVDASVATNGSALAFLSLVANSLKDAGIREGLNARGSLELVKMSFKGFAKLLEKERPEMIIEQICTPKGATIEGLSVLEKKGVRGAFIEACHKSVKKMRLLEHHHHHH | not soluble
